# Patent publication US20230287126A1 (BIO THERA SOLUTIONS, published 2023)
# Target: T1, human PD-L1 overexpressed on CHO cells (human, UniProt Q9NZQ7 19-290)
# Assay: cell-based or functional assay
# T1 sequence (Q9NZQ7 19-290): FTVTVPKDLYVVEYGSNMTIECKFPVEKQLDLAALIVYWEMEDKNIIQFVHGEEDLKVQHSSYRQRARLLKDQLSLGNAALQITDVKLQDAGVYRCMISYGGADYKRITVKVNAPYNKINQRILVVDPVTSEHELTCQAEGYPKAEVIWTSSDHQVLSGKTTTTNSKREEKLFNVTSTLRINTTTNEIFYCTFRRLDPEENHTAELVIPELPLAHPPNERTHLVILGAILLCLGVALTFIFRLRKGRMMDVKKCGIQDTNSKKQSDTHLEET
row,"EC50 (luciferase reporter luminescence, PD-1/PD-L1 Blockade Bioassay, CHO-PD-L1 + Jurkat-PD1 cells)",Binder
1,0.382 µg/mL,"L1-R2-4-71 (antibody, human IgG1, kappa, V domains shown) VH: EVQLVESGGGLVQPGGSLRLSCAASGFTFSDSWIHWVRQAPGKGLEWVGWISPYGGSTYYADSYRSRFTISADTSKNTAYLQMNSLRAEDTAVYYCARRHWPGGFDYWGQGTLVTVSS VL: EIVLTQSPSSLSASVGDRVTITCLASQTIGTWLAWYQQKPGKSPQLLIYAASTLQSGVPSRFSGSGSGTDFTLTISSLQPEDVATYYCQQYYSTPRTFGQGTKVEIKR"
2,0.224 µg/mL,"L1-R2-4-46 (antibody, human IgG1, kappa, V domains shown) VH: EVQLVESGGGLVQPGGSLRLSCAASGFTFSDSWIHWVRQAPGKGLEWVGWISPYGGSTYYADSLGDRFTISADTSKNTAYLQMNSLRAEDTAVYYCARRHWPGGFDYWGQGTLVTVSS VL: EIVLTQSPSSLSASVGDRVTITCLASQTIGTWLAWYQQKPGKSPQLLIYAASTLQSGVPSRFSGSGSGTDFTLTISSLQPEDVATYYCQQYYSTPRTFGQGTKVEIKR"
3,0.401 µg/mL,"L1-R2-4-55 (antibody, human IgG1, kappa, V domains shown) VH: EVQLVESGGGLVQPGGSLRLSCAASGFTFSDSWIHWVRQAPGKGLEWVGWISPYGGSTYYADGMRSRFTISADTSKNTAYLQMNSLRAEDTAVYYCARRHWPGGFDYWGQGTLVTVSS VL: EIVLTQSPSSLSASVGDRVTITCLASQTIGTWLAWYQQKPGKSPQLLIYAASTLQSGVPSRFSGSGSGTDFTLTISSLQPEDVATYYCQQYYSTPRTFGQGTKVEIKR"
4,0.389 µg/mL,"L1-R2-4-47 (antibody, human IgG1, kappa, V domains shown) VH: EVQLVESGGGLVQPGGSLRLSCAASGFTFSDSWIHWVRQAPGKGLEWVGWISPYGGSTYYADHLSQRFTISADTSKNTAYLQMNSLRAEDTAVYYCARRHWPGGFDYWGQGTLVTVSS VL: EIVLTQSPSSLSASVGDRVTITCLASQTIGTWLAWYQQKPGKSPQLLIYAASTLQSGVPSRFSGSGSGTDFTLTISSLQPEDVATYYCQQYYSTPRTFGQGTKVEIKR"
5,0.148 µg/mL,"L1-R2-4-36 (antibody, human IgG1, kappa, V domains shown) VH: EVQLVESGGGLVQPGGSLRLSCAASGFTFSDSWIHWVRQAPGKGLEWVGWISPYGGSTYYADDFRHRFTISADTSKNTAYLQMNSLRAEDTAVYYCARRHWPGGFDYWGQGTLVTVSS VL: EIVLTQSPSSLSASVGDRVTITCLASQTIGTWLAWYQQKPGKSPQLLIYAASTLQSGVPSRFSGSGSGTDFTLTISSLQPEDVATYYCQQYYSTPRTFGQGTKVEIKR"

# Target: T2, PD-L1-His-Biotin (human, UniProt Q9NZQ7 19-238, biotin-labelled (sites not given))
# T2 construct: also called PD-L1-His-Biotin antigen protein
# T2 sequence (Q9NZQ7 other isoform, or with tags, fused parts or gaps): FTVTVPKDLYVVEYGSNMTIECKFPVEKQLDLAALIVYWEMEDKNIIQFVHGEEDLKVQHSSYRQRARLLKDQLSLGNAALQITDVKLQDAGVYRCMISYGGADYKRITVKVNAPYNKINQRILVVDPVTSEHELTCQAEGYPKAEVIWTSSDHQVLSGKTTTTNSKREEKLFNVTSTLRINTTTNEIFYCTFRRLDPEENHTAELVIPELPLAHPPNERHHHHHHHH
# Assay: flow cytometry of yeast-displayed scFv with 1 nM PD-L1-His-Biotin, Streptavidin-PE; positive rate %
# Experimental: (§1) The yeasts described above were incubated with 1 nM of PD-L1-His-Biotin antigen protein at room temperature for 1 h, washed 3 times with PBS at pH 7.4, then incubated with Streptavidin-PE fluorescent secondary antibody at room temperature for 30 min, and washed 3 times with PBS at pH 7.4. The fresh PBS was added, and loaded on the machine for assay.
row,binding result,Binder
1,binds,"CP22-44 (scFv, also called CP22-44 scFv) scFv (VH - linker - VL, VH at the N terminus): EVQLVESGGGLVQPGGSLRLSCAASGLRPADSWIHWVRQAPGKGLEWVGWISPYGGSTYYADSVKGRFTISADTSKNTAYLQMNSLRAEDTAVYYCARRHWPGGFDYWGQGTLVTVSSGGGGSGGGGSGGGGSEIVLTQSPSSLSASVGDRVTITCLASQTIGTWLAWYQQKPGKSPQLLIYAASTLQSGVPSRFSGSGSGTDFTLTISSLQPEDVATYYCQQYYSTPRTFGQGTKVEIK"
2,binds,"CP21-59 (scFv, also called CP21-59 scFv) scFv (VH - linker - VL, VH at the N terminus): EVQLVESGGGLVQPGGSLRLSCAASSFSLKDSWIHWVRQAPGKGLEWVGWISPYGGSTYYADSVKGRFTISADTSKNTAYLQMNSLRAEDTAVYYCARRHWPGGFDYWGQGTLVTVSSGGGGSGGGGSGGGGSEIVLTQSPSSLSASVGDRVTITCLASQTIGTWLAWYQQKPGKSPQLLIYAASTLQSGVPSRFSGSGSGTDFTLTISSLQPEDVATYYCQQYYSTPRTFGQGTKVEIK"
3,binds,"CP22-45 (scFv, also called CP22-45 scFv) scFv (VH - linker - VL, VH at the N terminus): EVQLVESGGGLVQPGGSLRLSCAASNSHLRDSWIHWVRQAPGKGLEWVGWISPYGGSTYYADSVKGRFTISADTSKNTAYLQMNSLRAEDTAVYYCARRHWPGGFDYWGQGTLVTVSSGGGGSGGGGSGGGGSEIVLTQSPSSLSASVGDRVTITCLASQTIGTWLAWYQQKPGKSPQLLIYAASTLQSGVPSRFSGSGSGTDFTLTISSLQPEDVATYYCQQYYSTPRTFGQGTKVEIK"
4,binds,"CP22-40 (scFv, also called CP22-40 scFv) scFv (VH - linker - VL, VH at the N terminus): EVQLVESGGGLVQPGGSLRLSCAASGFTFSDSWIHWVRQAPGKGLEWVGWISPYGGSTYYADSVKGRFTISADTSKNTAYLQMNSLRAEDTAVYYCARRHWPGGLLPWGQGTLVTVSSGGGGSGGGGSGGGGSEIVLTQSPSSLSASVGDRVTITCLASQTIGTWLAWYQQKPGKSPQLLIYAASTLQSGVPSRFSGSGSGTDFTLTISSLQPEDVATYYCQQYYSTPRTFGQGTKVEIK"

# Target: T1, human PD-L1 overexpressed on CHO cells
# Assay: cell-based or functional assay
# Remark: another data set of the same source
row,Binder,"EC50 (luciferase reporter luminescence, PD-1/PD-L1 Blockade Bioassay, CHO-PD-L1 + Jurkat-PD1 cells)"
1,"L1-R2-4 (antibody, V domains shown) VH: not shown VL: EIVLTQSPSSLSASVGDRVTITCLASQTIGTWLAWYQQKPGKSPQLLIYAASTLQSGVPSRFSGSGSGTDFTLTISSLQPEDVATYYCQQYYSTPRTFGQGTKVEIKR",2.74 µg/mL
2,"L1-R2-6 (antibody, V domains shown) VH: not shown VL: EIVLTQSPSSVSASVGDKLTMTCQASQDIGKHLNWYQQKPGKPPKLLIYGASNLKTGVPSRFSGTGSGTDFTLTISSLQPEDFATYYCQQSYTTPYTFGQGTRLEIKR",3.92 µg/mL

# The remaining lines, values ahead:
row,"EC50 (luciferase reporter luminescence, PD-1/PD-L1 Blockade Bioassay, CHO-PD-L1 + Jurkat-PD1 cells)",Binder
1,5.09 µg/mL,"L1-R2-18 (antibody, V domains shown) VH: not shown VL: EIVLTQSPSSVSASVGDRITITCRASQGIGSWLAWYQQKPGKAPSLLIYAASSLQSGVPSRFSGSGSGTDFTLTISSLQTEDVAVYYCQQYFSTPYTFGQGTKVDIKR"
2,5.22 µg/mL,"L1-R2-85 (antibody, V domains shown) VH: not shown VL: DIQMTQSPSSLSASVGDRVTIPCRASQGIGKFLAWYQQKPGKAPSLLIYAASSLQSGVPSRFSGSGSGTDFTLTISSLQTEDVAVYYCQQYFSTPYTFGQGTKVDIKR"
3,3.78 µg/mL,"L1-R2-89 (antibody, V domains shown) VH: not shown VL: DIQMTQSPSSLSASVGDRVTITCLASQTIGTWLAWYQQKPGKSPQLLIYAASSLQSGVPSRFSGSGSGTDFTLTISSLQPEDVATYYCQQYYSTPYTFGQGTKVDIKR"
4,3.57 µg/mL,"L1-R2-78 (antibody, V domains shown) VH: not shown VL: DIQMTQSPSSFSASTGDRVTITCRASQGISSYLAWYQQKPGKAPKLLIYAASRLQSGVPSRFSGSGSGTDFTLTISSLQAEDVAVYYCQQYYSTPYTFGQGTKVDIKR"

# Target: T2, PD-L1-His-Biotin
# Assay: flow cytometry of yeast-displayed scFv with 1 nM PD-L1-His-Biotin, Streptavidin-PE
# Experimental: as §1
row,binding result,Binder
1,binds,"CP11-71 scFv (scFv, display fusion partner not described; VH at N terminus) scFv: EVQLVESGGGLVQPGGSLRLSCAASGFTFSDSWIHWVRQAPGKGLEWVGWISPYGGSTYYADSYRSRFTISADTSKNTAYLQMNSLRAEDTAVYYCARRHWPGGFDYWGQGTLVTVSSGGGGSGGGGSGGGGSEIVLTQSPSSLSASVGDRVTITCLASQTIGTWLAWYQQKPGKSPQLLIYAASTLQSGVPSRFSGSGSGTDFTLTISSLQPEDVATYYCQQYYSTPRTFGQGTKVEIK"
